From IntAct's records for PubMed 30245403

Biological target: T1, prdx2_human PRDX2 (UniProt P32119)
T1 sequence: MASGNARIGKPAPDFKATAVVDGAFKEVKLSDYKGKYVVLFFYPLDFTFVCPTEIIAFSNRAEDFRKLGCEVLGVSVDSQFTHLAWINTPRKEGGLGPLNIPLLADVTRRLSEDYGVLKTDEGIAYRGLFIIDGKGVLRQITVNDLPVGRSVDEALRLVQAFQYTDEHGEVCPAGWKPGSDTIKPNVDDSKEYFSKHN

For “"DNA (cytosine-5)-methyltransferase 3A" (Homo sapiens) (from UniProt Q9Y6K1) R882H”, the “effect of a mutation on the interaction” value was “increasing interaction strength”.
In the case of “"DNA (cytosine-5)-methyltransferase 3A" (Homo sapiens) (from UniProt Q9Y6K1) R882C”, the “effect of a mutation on the interaction” value is reported as “with no effect”.
